Literature values, collected in PMC6504839.
Where two headings read alike, the source gives them in different places.

Assays:
[1] = molecular target: integrin αIIbβ3 (Homo sapiens) (UniProt P08514)
[2] = molecular target: integrin αIIbβ3 (Homo sapiens) (UniProt P08514); remark: listed apart in the source

Row | Substance | Kd [1] | Kd [2]
1 | Disagregin (from UniProt P36235) | 40 nM | 
2 | Savignygrin (from UniProt Q8MVZ3) |  | 60 nM
